From US20070185311A1 (EPIX MEDICAL INC A DELAWARE, published 2007)
Starred links: 1 amine or outer side, 2 acyl side, 3 side chain; linkers in the order of their positions; H or OH if unused. Positions of bridges follow the written chain, without caps; N, C: chain ends. Non-standard residues stand in square brackets, D forms with d. No end group written: not given here. 4‑methoxycoumarin = 4-Methoxycoumarin, an N-terminal optical probe label; Phe(4-OMe) = COc1ccc(C[C@H](N[*:1])C(=O)[*:2])cc1; Ser(Bzl) = O=C([C@H](COCc1ccccc1)N[*:1])[*:2]; Tyr(3-Cl) = N[C@@H](Cc1ccc(O)c(Cl)c1)C(=O)O; Bip = N[C@@H](Cc1ccc(-c2ccccc2)cc1)C(=O)O; Tyr(3-I) = N[C@@H](Cc1ccc(O)c(I)c1)C(=O)O; 2Nal = N[C@@H](Cc1ccc2ccccc2c1)C(=O)O; Hyp = O=C(O)[C@@H]1C[C@@H](O)CN1; Cha = N[C@@H](CC1CCCCC1)C(=O)O; Ahx = NCCCCCC(=O)O; βAla = NCCC(=O)O

Experiments:
DD(E) fragment of fibrin [1] = test: affinity of fluorophore-labelled peptide; target taken as fibrin DD(E) fragment
DD(E) fragment of fibrin [2] = test: affinity of optical contrast agent to fibrin DD(E) fragment
DD(E) fragment of fibrin [3] = biological target: T1, DD(E) fragment of fibrin; test: affinity to DD(E) fragment of fibrin
T1 chain 1: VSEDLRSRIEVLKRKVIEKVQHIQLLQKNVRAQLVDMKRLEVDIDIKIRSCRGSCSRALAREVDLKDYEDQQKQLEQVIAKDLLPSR
T1 chain 2: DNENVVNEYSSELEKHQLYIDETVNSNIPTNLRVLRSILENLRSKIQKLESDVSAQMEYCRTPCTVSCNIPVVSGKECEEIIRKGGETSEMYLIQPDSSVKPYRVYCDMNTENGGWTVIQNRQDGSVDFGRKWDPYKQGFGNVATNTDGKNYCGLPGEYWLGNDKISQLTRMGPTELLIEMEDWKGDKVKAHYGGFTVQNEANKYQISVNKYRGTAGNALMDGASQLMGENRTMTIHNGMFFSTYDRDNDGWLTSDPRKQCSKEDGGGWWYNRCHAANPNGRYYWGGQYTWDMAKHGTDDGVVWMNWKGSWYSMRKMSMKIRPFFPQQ
T1 chain 3: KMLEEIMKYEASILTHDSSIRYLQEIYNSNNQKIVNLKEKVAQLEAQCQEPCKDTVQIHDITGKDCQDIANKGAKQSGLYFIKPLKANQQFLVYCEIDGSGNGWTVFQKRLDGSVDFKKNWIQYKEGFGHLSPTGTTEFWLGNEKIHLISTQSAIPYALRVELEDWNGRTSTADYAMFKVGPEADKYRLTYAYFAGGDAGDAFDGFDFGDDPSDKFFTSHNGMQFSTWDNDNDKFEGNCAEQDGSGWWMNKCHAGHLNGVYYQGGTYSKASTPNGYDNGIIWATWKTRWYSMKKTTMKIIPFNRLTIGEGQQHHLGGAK
T1 chain 4: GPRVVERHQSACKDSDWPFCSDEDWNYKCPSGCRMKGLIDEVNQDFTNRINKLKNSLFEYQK
T1 chain 5: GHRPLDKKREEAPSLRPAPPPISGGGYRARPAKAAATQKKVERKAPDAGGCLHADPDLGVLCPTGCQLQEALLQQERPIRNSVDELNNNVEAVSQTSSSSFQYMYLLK
T1 chain 6: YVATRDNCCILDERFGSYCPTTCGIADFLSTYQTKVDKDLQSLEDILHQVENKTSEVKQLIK

DD(E) fragment of fibrin [4] = test: affinity to soluble fibrin DD(E) fragment
DD(E) fragment of fibrin [5] = biological target: T1, DD(E) fragment of fibrin; test: affinity of optical contrast agent to fibrin DD(E) fragment
DD(E) fragment of fibrin [6] = biological target: T1, DD(E) fragment of fibrin; test: affinity to DD(E) fragment of fibrin
fibrin = test: Fibrin Affinity; method not stated
DD(E) fragment of fibrin [7] = test: affinity of the unlabelled peptide; target taken as fibrin DD(E) fragment

Molecule: Structure J: Fluor-Q-W-E-C-P-Y-G-L-C-W-I-Q (peptide)
- Kd (DD(E) fragment of fibrin [1]): 60 nM
- Kd (DD(E) fragment of fibrin [2]): 55 nM

Molecule: FHC[Hyp][Tyr(3-Cl)]FLCHIL (disulfide 3-8 (inferred)) [F-H-C-Hyp-Y(3-Cl)-F-L-C-H-I-L]
- Kd (DD(E) fragment of fibrin [3]): ≤ 500 nM

Molecule: H[dE]C[Hyp][Tyr(3-Cl)]GLCWIQ (disulfide 3-8 (inferred)) [H-(D-E)-C-Hyp-Y(3-Cl)-G-L-C-W-I-Q]
- Kd (DD(E) fragment of fibrin [3]): ≤ 200 nM

Molecule: WEC[Hyp][Tyr(3-Cl)]GLCYIQ (disulfide 3-8 (inferred)) [W-E-C-Hyp-Y(3-Cl)-G-L-C-Y-I-Q]
- Kd (DD(E) fragment of fibrin [3]): ≤ 300 nM

Molecule: YEC[Hyp][Tyr(3-Cl)]GLCYIQ (disulfide 3-8 (inferred)) [Y-E-C-Hyp-Y(3-Cl)-G-L-C-Y-I-Q]
- Kd (DD(E) fragment of fibrin [3]): ≤ 200 nM

Molecule: S[dE]C[Hyp][Tyr(3-Cl)]GLCWIQ (disulfide 3-8 (inferred)) [S-(D-E)-C-Hyp-Y(3-Cl)-G-L-C-W-I-Q]
- Kd (DD(E) fragment of fibrin [3]): ≤ 200 nM

Molecule: FHC[Hyp][Tyr(3-Cl)]GLCHIL (disulfide 3-8 (inferred)) [F-H-C-Hyp-Y(3-Cl)-G-L-C-H-I-L]
- Kd (DD(E) fragment of fibrin [3]): ≤ 400 nM

Molecule: [Ser(Bzl)]HCPYDLCHIL (disulfide 3-8 (inferred)) [S(Bzl)-H-C-P-Y-D-L-C-H-I-L]
- Kd (DD(E) fragment of fibrin [3]): ≤ 400 nM

Molecule: {4‑methoxycoumarin}-QWECPYGLCWIQ (cysteine pairing not given here) [Compound N: 4-methoxycoumarin derivative of …]
- Kd (DD(E) fragment of fibrin [1]): 200 nM

Molecule: tetramethylrhodamine-QWECPYGLCWIQ (cysteine pairing not given here) [Compound L: tetramethylrhodamine derivative of …]
- Kd (DD(E) fragment of fibrin [1]): 2000 nM

B1: Compound 32 (peptide)
peptide: LPCDYYGTCXD
modifications: not fully specified; Bip at 10; cyclized with thallium trifluoroacetate; C-terminus as -CO-NHCH2C6H4CH2NH2; Synthon #2 (bb(CO)DTPA chelates, Gd) coupled to the N- and C-terminal amines
- Kd (DD(E) fragment of fibrin [4]): 4700 nM

Molecule: fluorescein-KFHC[Hyp][Tyr(3-I)]DLCHI (disulfide 4-9 (inferred)) [Structure F: Fluor-K-F-H-C-Hyp-Y(3-I)-D-L-C-H-I]
- Kd (DD(E) fragment of fibrin [5]): 212 nM

Molecule: fluorescein-[Ahx]FHC[Hyp][Tyr(3-I)]DLCHI (disulfide 4-9 (inferred)) [Structure B: Fluor-Ahx-F-H-C-Hyp-Y(3-I)-D-L-C-H-I]
- Kd (DD(E) fragment of fibrin [2]): 99 nM

Molecule: fluorescein-[Ahx]WFHC[Hyp][Tyr(3-I)]DLCHI (disulfide 5-10 (inferred)) [Structure D: Fluor-Ahx-W-F-H-C-Hyp-Y(3-I)-D-L-C-H-I]
- Kd (DD(E) fragment of fibrin [5]): 61 nM

Molecule: T[dE]C[Hyp][Tyr(3-Cl)]GLCWIQ (disulfide 3-8 (inferred)) [T-(D-E)-C-Hyp-Y(3-Cl)-G-L-C-W-I-Q]
- Kd (DD(E) fragment of fibrin [3]): ≤ 200 nM

Molecule: [Cha]PCDYYGTC[Bip]D (cysteine pairing not given here) [Cha-P-C-D-Y-Y-G-T-C-Bip-D]
- Kd (DD(E) fragment of fibrin [6]): ≤ 10000 nM

Molecule: WEC[Hyp][Tyr(3-Cl)]GLCHIQ (disulfide 3-8 (inferred)) [W-E-C-Hyp-Y(3-Cl)-G-L-C-H-I-Q]
- Kd (DD(E) fragment of fibrin [3]): ≤ 200 nM

Molecule: WEC[Hyp][Tyr(3-Cl)]GLCFIQ (disulfide 3-8 (inferred)) [W-E-C-Hyp-Y(3-Cl)-G-L-C-F-I-Q]
- Kd (DD(E) fragment of fibrin [3]): ≤ 200 nM

Molecule: [Phe(4-OMe)]WC[Hyp][Tyr(3-I)]DLCHI (disulfide 3-8 (inferred)) [F(4-OMe)-W-C-Hyp-Y(3-I)-D-L-C-H-I]
- Kd (DD(E) fragment of fibrin [3]): ≤ 500 nM

Molecule: FHC[Hyp][Tyr(3-Cl)][2Nal]LCHIL (disulfide 3-8 (inferred)) [F-H-C-Hyp-Y(3-Cl)-(2-Nal)-L-C-H-I-L]
- Kd (DD(E) fragment of fibrin [3]): ≤ 500 nM

Molecule: QWECPYGLCWIQ […]
- Ki (fibrin): 4700 nM
- Kd (DD(E) fragment of fibrin [7]): 3000 nM

Molecule: LPCDYYGTCLD (not fully specified; cysteine pairing not given here) [L-P-C-D-Y-Y-G-T-C-L-D]
- Kd (DD(E) fragment of fibrin [6]): ≤ 10000 nM

Molecule: fluorescein-[βAla]FHC[Hyp][Tyr(3-I)]DLCHI (disulfide 4-9 (inferred)) [Structure A: Fluor-beta-A-F-H-C-Hyp-Y(3-I)-D-L-C-H-I]
- Kd (DD(E) fragment of fibrin [2]): 136 nM

Molecule: HEC[Hyp][Tyr(3-Cl)]GLCHIQ (disulfide 3-8 (inferred)) [H-E-C-Hyp-Y(3-Cl)-G-L-C-H-I-Q]
- Kd (DD(E) fragment of fibrin [3]): ≤ 400 nM

Molecule: fluorescein-KWFHC[Hyp][Tyr(3-I)]DLCHI (disulfide 5-10 (inferred)) [Structure H: Fluor-K-W-F-H-C-Hyp-Y(3-I)-D-L-C-H-I]
- Kd (DD(E) fragment of fibrin [5]): 119 nM

Molecule: fluorescein-[Ahx]GFHC[Hyp][Tyr(3-I)]DLCHI (disulfide 5-10 (inferred)) [Structure C: Fluor-Ahx-G-F-H-C-Hyp-Y(3-I)-D-L-C-H-I]
- Kd (DD(E) fragment of fibrin [5]): 97 nM

Molecule: fluorescein-WFHCPYDLCHIL (disulfide 4-9 (inferred)) [Structure K: Fluor-W-F-H-C-P-Y-D-L-C-H-I-L]
- Kd (DD(E) fragment of fibrin [5]): 60 nM

Molecule: fluorescein-[Ahx]GGFHC[Hyp][Tyr(3-I)]DLCHI (disulfide 6-11 (inferred)) [Structure E: Fluor-Ahx-G-G-F-H-C-Hyp-Y(3-I)-D-L-C-H-I]
- Kd (DD(E) fragment of fibrin [5]): 90 nM
